From article PMC3581732 (Molecular microbiology, 2013)

Biological target: the molecule itself
Experiment: cross-linking

B1: TolC Y362F/R367E (YFRE^His), leaky/open mutant with a C-terminal 6His-tag (natural protein)
chain: ENLMQVYQQARLSNPELRKSAADRDAAFEKINEARSPLLPQLGLGADYTYSNGYRDANGINSNATSASLQLTQSIFDMSKWRALTLQEKAAGIQDVTYQTDQQTLILNTATAYFNVLNAIDVLSYTQAQKEAIYRQLDQTTQRFNVGLVAITDVQNARAQYDTVLANEVTARNNLDNAVEQLRQITGNYYPELAALNVENFKTDKPQPVNALLKEAEKRNLSLLQARLSQDLAREQIRQAQDGHLPTLDLTASTGISDTSYSGSKTRGAAGTQYDDSNMGQNKVGLSFSLPIYQGGMVNSQVKQAQYNFVGASEQLESAHRSVVQTVRSSFNNINASISSINAYKQAVVSAQSSLDAMEAGFSVGTETIVDVLDATTTLYNAKQELANARYNYLINQLNIKSALGTLNEQDLLALNNALSKPVSTNPENVAPQTPEQNAIADGYAPDSPAPVVQQTSARTTTSNGHNPFRN
stoichiometry N: 3
